Data published in patent US20190177423A1.

What was measured:
[1] = biological target: FcγRIIIa(V158) (Sino Biological Inc, 10389-H08C1) (UniProt P08637); assay: Binding ELISA on FcγRIIIa(V158); relative to MIL62 as 100%
[2] = biological target: FcγRIIIa(V158) (Sino Biological Inc, 10389-H08C1) (UniProt P08637); assay: Binding ELISA: FcγRIIIa captured on anti-His coated plate; IgG pre-complexed with goat F(ab')2 anti-human-κ (1:2 w/w); HRP anti-human IgG F(ab')2 detection

FcγRIIIa(V158) (Sino Biological Inc, 10389-H08C1), sequence (P08637 17-208 F176V): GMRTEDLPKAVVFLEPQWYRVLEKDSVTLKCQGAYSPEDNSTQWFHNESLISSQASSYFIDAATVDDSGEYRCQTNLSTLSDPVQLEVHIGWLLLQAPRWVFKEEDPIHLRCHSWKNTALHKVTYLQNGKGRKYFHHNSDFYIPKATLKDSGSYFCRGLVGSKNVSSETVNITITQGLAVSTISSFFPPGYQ

Relative Bioactivity (%) [1]: 26.8% | EC50 [2]: 0.194 µg/mL
Substance: RITUXAN (rituximab) (antibody)
